Test results from patent US20250101453A1, “METHODS OF PARTHENOGENIC HAPLOID INDUCTION AND HAPLOID CHROMOSOME DOUBLING” (PIONEER HI-BRED INTERNATIONAL, INC., priority 2022, published 2025).
Several values for one entry are separate records, joined by “and”; a condition that tells them apart may be missing. Equal values may be shown once.

Legend:
[1] = chemical chromosome doubling, Frei et al. 2018; cited from earlier work
unfertilized egg cell = experiment: In vivo genetic chromosome doubling: fertility (mature seed set) of self-pollinated regenerated T1 (D0) plants, Example 3; parameters: species or system Zea mays
Excerpt: Using the methods described in Example 2, T0 transgenic plants hemizygous for RV027603 (SEQ ID NO: 7) were obtained from a population of transformed immature diploid embryos. […] Using methods known in the art, single copy T0 plants were identified and grown to maturity. Upon the transition to flowering, the T0 plants were used as female parent plants to provide a donor ear.
(§1) The ears of the transgenic female parent plants were shoot-bagged before silk emergence to avoid any foreign pollen contamination. The silks of the donor ears were pollinated with viable pollen grains collected from the anthers of a haploid inducer parent plant, constituting a “haploid induction cross”.
(§2) Immature ears were harvested approximately 18 days after pollination, surface sterilized in 30% Clorox bleach plus 0.5% Micro detergent for 20 minutes and washed twice with sterile water. Immature embryos obtained from each donor ear comprising a biological replicate for a unique transformation event were plated on a petri dish containing 605B resting medium and incubated at 28° C. under dark conditions for 12-24 hours.
A total of 8 unique events for RV027603 were analyzed. Per event, two groups of haploid embryos were obtained given the hemizygous T-DNA from RV027603 inherited from the maternal plant. A first group of haploid embryos lacking inheritance of T-DNA from RV027603 was used to regenerate “null T1 plants”. A second group of haploid embryos that inherited a T-DNA from RV027603 was used to regenerate “hemizygous T1 plants”. No artificial chromosome doubling treatment, for example a chemical chromosome doubling treatment or agent, was provided to any of the haploid embryos during the experiment.
To assess the efficacy of in vivo genetic chromosome doubling in response to ZM-ODP2-(266-669) activity, the proportion of regenerated T1 plants capable of producing intact, mature seed was evaluated. The ear of each D0 (T1) plant for both the “null” or “hemizygous” T1 groups were shoot-bagged before silk emergence to avoid any foreign pollen contamination. The silks of the ears for each D0 (T1) plant were self-pollinated with pollen grains collected from the anthers of each D0 (T1) plant. After self-fertilization, the plants were grown to physiological maturity, the ears harvested, and D1 (T2) seed was counted per donor ear from each null and hemizygous plant per group per event. Seed counts for fertile plants were sorted into three categories: a low-range consisting of 1-24 kernels/ear, a medium-range consisting of 25-39 kernels/ear, and a high-range consisting of 40 or more kernels/ear.

[2] = tested on: Background 1 (PHR03 x PH184C); experiment: Haploid induction cross, haploid embryos scored by absence of paternal YFP, Background 1; format: in vivo, Zea mays
Experimental: as §1, §2
Using the methods described in Examples 2 and 3, T0 transgenic plants hemizygous for RV048759 (SEQ ID NO: 16) or RV027603 (SEQ ID NO: 7) were obtained from a population of transformed immature diploid embryos from two different genetic backgrounds. The first genetic background (hereinafter “Background 1”) was “PHR03 x PH184C” and the second genetic background (hereinafter “Background 2”) was X08D492.
The T0 transgenic plants hemizygous for RV048759 were used as female parent plants and the donor ears fertilized with pollen provided by a pollen donor. The silks of the donor ears were pollinated with viable pollen grains collected from the anthers of a haploid inducer parent plant, constituting a “haploid induction cross”.
(§3) A total of 13 unique events for RV048759 and a total of 7 unique events for RV027603 were analyzed in Background 1. A total of 13 unique events for RV048759 and a total of 11 unique events for RV027603 were analyzed in Background 2.

Background 2 (X08D492) = experiment: Haploid induction cross, haploid embryos scored by absence of paternal YFP, Background 2; format: in vivo, Zea mays
Experimental: as §1, §2
Using the methods described in Examples 2 and 3, T0 transgenic plants hemizygous for RV048759 (SEQ ID NO: 16) or RV027603 (SEQ ID NO: 7) were obtained from a population of transformed immature diploid embryos from two different genetic backgrounds. The first genetic background (hereinafter “Background 1”) was “PHR03 x PH184C” and the second genetic background (hereinafter “Background 2”) was X08D492. […]
as §3

COc1cc2c(c(OC)c1OC)-c1ccc(OC)c(=O)cc1[C@@H](NC(C)=O)CC2 [colchicine, (S)-N-(5,6,7,9-tetrahydro-1,2,3,10-tetramethoxy-9-oxobenzo (a)heptalen-7-yl) acetamide]
fertility rates for self-pollinated D0 plants [1]: 15-20%

B1: ZM-ODP2-(266-669): truncated maize Ovule Development Protein 2 polypeptide (SEQ ID NO: 2) encoded by ZM-ODP2 (TR5); expressed from plasmid RV027603 under egg cell promoter (protein)
chain: MDTFGQRTSIYRGVTRHRWTGRYEAHLWDNSCRREGQTRKGRQVYLGGYDKEEKAARAYDLAALKYWGATTTTNFPVSNYEKELEDMKHMTRQEFVASLRRKSSGFSRGASIYRGVTRHHQHGRWQARIGRVAGNKDLYLGTFSTQEEAAEAYDIAAIKFRGLNAVTNFDMSRYDVKSILDSSALPIGSAAKRLKEAEAAASAQHHHAGVVSYDVGRIASQLGDGGALAAAYGAHYHGAAWPTIAFQPGAASTGLYHPYAQQPMRGGGWCKQEQDHAVIAAAHSLQDLHHLNLGAAGAHDFFSAGQQAAAAAMHGLGSIDSASLEHSTGSNSVVYNGGVGDSNGASAVGGSGGGYMMPMSAAGATTTSAMVSHEQVHARAYDEAKQAAQMGYESYLVNAENNGGG
modifications: Zea mays
notes: expressed from plasmid RV027603 under egg cell promoter
self-pollinated hemizygous D0/T1 plants that produced 40 or more D1/T2 kernels (unfertilized egg cell; % of the hemizygous T1 group): 83% | average level of fertile hemizygous T1 plants (unfertilized egg cell; hemizygous T1 plants, across 8 events of RV027603, self-pollinated, no artificial chromosome doubling treatment): 14.9% | level of fertile null T1 plants (produced mature, intact seed) (unfertilized egg cell; null T1 plants lacking T-DNA of RV027603, same 8 events, self-pollinated): 3.2% and 3.17% | self-pollinated hemizygous D0/T1 plants that produced 40 or more D1/T2 kernels (count) (unfertilized egg cell; of 38 self-pollinated D0/T1 plants): 31 | average haploid induction rate [2]: 3.5% | Haploid Induction Rate (%) ([2]; per event): 2.5% and 2.4% and 1.9% and 4.8% and 0.6% and 5.0% and 7.0% | average haploid induction rate (Background 2 (X08D492)): 15.1%

B2: ZM-ODP2-(266-668):At-CBF1a: fusion protein (SEQ ID NO: 15) of truncated ZM-ODP2 and C-repeat/DRE binding factor domain At-CBF1a; expressed from plasmid RV048759 under PvEC1 promoter (protein)
chain: MDTFGQRTSIYRGVTRHRWTGRYEAHLWDNSCRREGQTRKGRQVYLGGYDKEEKAARAYDLAALKYWGATTTTNFPVSNYEKELEDMKHMTRQEFVASLRRKSSGFSRGASIYRGVTRHHQHGRWQARIGRVAGNKDLYLGTFSTQEEAAEAYDIAAIKFRGLNAVTNFDMSRYDVKSILDSSALPIGSAAKRLKEAEAAASAQHHHAGVVSYDVGRIASQLGDGGALAAAYGAHYHGAAWPTIAFQPGAASTGLYHPYAQQPMRGGGWCKQEQDHAVIAAAHSLQDLHHLNLGAAGAHDFFSAGQQAAAAAMHGLGSIDSASLEHSTGSNSVVYNGGVGDSNGASAVGGSGGGYMMPMSAAGATTTSAMVSHEQVHARAYDEAKQAAQMGYESYLVNAENNGGGGGGGSGGGGSGGGGSTCAKDIQKAAAEAALAFQDETCDTTTTNHGLDMEETMVEAIYTPEQSEGAFYMDEETMFGMPTLLDNMAEGMLLPPPSVQWNHNYDGEGDGDVSLWSY
average haploid induction rate [2]: 31.3% | average haploid induction rate (Background 2 (X08D492)): 33.9%
